Test results as given in article PMC11943158.
Where two headings read alike, the source gives them in different places.

B1: Gli2: S355A (protein)
parent chain: METSAPAPALEKKEAKSGLLEDSSFPDPGKKACPLAVAAAVAAHGVPQQLLPAFHAPLPIDMRHQEGRYHYDPHSVHSVHGPPTLSGSPVISDISLIRLSPHPAGPGESPFSAHHPYVNPHMEHYLRSVHSSPTLSMISAARGLSPADVAHEHLKERGLFSLAAPGTNPSDYYHQMTLMASHPTPYGDLLMQSGGAASAPHLHDYLNPVDASRFSSPRVTPRLSRKRALSISPLSDASLDLQRMIRTSPNSLVAYINNSRSSSAASGSYGHLSAGALSPAFTFPHPINPVAYQQILSQQRGLGSAFGHTPPLIQPSPTFLAQQPMTLTSISTMPTQLSSSSSNCLNDANQNKQNSESAVSSTVNPITIHKRSKVKTEAEGLRPASPLGLTQEQLADLKEDLDRDDCKQEAEVVIYETNCHWADCTKEYDTQEQLVHHINNEHIHGEKKEFVCRWQACTREQKPFKAQYMLVVHMRRHTGEKPHKCTFEGCSKAYSRLENLKTHLRSHTGEKPYVCEHEGCNKAFSNASDRAKHQNRTHSNEKPYICKIPGCTKRYTDPSSLRKHVKTVHGPDAHVTKKQRNDVHVRAPLLKENGDNEASAEPGGRGPEESVEASSTSHTVEDCLHIKAIKTESSGLCQSSPGAQSSCSSEPSPLGSAPNNDSGMEMPGTGPGSLGDLTALADTCPGADTSALAAPSTGGLQLRKHMSTVHRFEQLKREKLKSLKDSCSWAGPAPHTRNTKLPPLPVNGSVLENFNNTGGGGPAGLLPSQRLPELTEVTMLSQLQERRDSSTSTMSSAYTVSRRSSGISPYFSSRRSSEASPLGGLRPHNASSADSYDPISTDASRRSSEASQCSGGGPGLLNLTPAQQYNLRAKYAAATGGPPPTPLPGLDRVSLRTRLALLDAPERALPGACPHPLGPRRGSDGPTYSHGHGHGYAGAAPAFPHEGPNSSTRRASDPVRRPDPLILPRVQRFHSTHNMNPGSLPPCADRRGLHVQSHPSVDSNLTRNAYSPRPPSINENVVMEAVAAGVDGPGLECDLGLVEDELVLPDDVVQYIKAHTGGTLDDGIRQGYPTEGTGFPENSKLPSPGLQGHRRLAAADSNMGPSAPGLGGCQLSYSPSSNLNKSNMPVQWNEVSSGTVDALPTQVKPPPFPHSNLAVVQQKPAFGQYPGYNPQSVQSSSGGLDSTQPHLQLRGAPSASRGSYTQQPRQPAAGSQCLGMSAAMSPQASYSQAHPQLSPNIVSGSLNQFSPSCSNMAAKPSHLGLPQQMEVVPNATIMNGHQREHGVPNSSLAAVSQPHPVLSYPQQDSYQQGSNLLSSHQPGFMESQQNAGFGLMQPRPPLEPNTASRHRGVRSGQQQLYARTTGQAMVTSANQETAEAMPKGPAGTMVSLAPQPSQDTGRAQDQNTLYYYGQIHMYEQNGGCPAVQPQPPQPQACSDSIQPEPLPSPGVNQVSSTVDSQLLEPPQIDFDAIMDDGDHSSLFSGALSPTLLHNLSQNSSRLTTPRNSLTLPSIPAGISNMAVGDMSSMLTSLAEESKFLNMMT
B2: Gli2: OSMI (protein)
parent chain: B1 parent chain

Columns and labels:
[1] = cycloheximide chase, Flag Western blot; settings: glycan lost
Flag Western blot = settings: glycan lost; control: Gli2-WT
[2] = O-GlcNAc at S355

Protein | degradation_or_half_life ([1]; control: Gli2-WT) | expression_or_secretion (Flag Western blot) | degradation_or_half_life [2] | expression_or_secretion [2] | degradation_or_half_life, half_life ([1]; control: PM without OSMI)
B1 | decreases | decreases | decreases | decreases | –
B2 | – | – | decreases, PM extended half-life from approximately 6 to 24 h; OSMI eliminated this | – | decreases
